Experimental data taken from publication PMC2797608.

Target: methyltransferase domain of human GLP (residues 951-1235) (human)
Assay: not stated; affinity of GLP for H3 peptides; the method of the affinity is not told; the methods describe only a SAHH-coupled kinetic assay of GLP (Km, kcat; peptide 2 uM to 4 mM, 70 uM SAM, room temperature, 25 mM potassium phosphate pH 8)

H3K9 peptide trimethylated at lysine 4
decrease in affinity against the peptide not methylated at K4: 43%
